The term Kd denotes the equilibrium constant for the complex coming apart. The low end stands for tighter binding, the high end for weaker binding.

The test has as its target T1, rhDLL4(重组人DLL4) (human, UniProt Q9NR61 27-524, limits assumed).
T1 construct: Immobilised on a CM5 chip for SPR and coated on 96-well plates for the MTT assay; also called 人DLL4抗原; DLL4抗原
The test can be described thus: SPR, Biacore X100, rhDLL4 immobilised on CM5 chip, antibody injected at 0.098-12.5 nM. On the technique in general: Surface plasmon resonance follows binding to a sensor surface in real time, without labels.

T1 sequence (Q9NR61 27-524 limits assumed): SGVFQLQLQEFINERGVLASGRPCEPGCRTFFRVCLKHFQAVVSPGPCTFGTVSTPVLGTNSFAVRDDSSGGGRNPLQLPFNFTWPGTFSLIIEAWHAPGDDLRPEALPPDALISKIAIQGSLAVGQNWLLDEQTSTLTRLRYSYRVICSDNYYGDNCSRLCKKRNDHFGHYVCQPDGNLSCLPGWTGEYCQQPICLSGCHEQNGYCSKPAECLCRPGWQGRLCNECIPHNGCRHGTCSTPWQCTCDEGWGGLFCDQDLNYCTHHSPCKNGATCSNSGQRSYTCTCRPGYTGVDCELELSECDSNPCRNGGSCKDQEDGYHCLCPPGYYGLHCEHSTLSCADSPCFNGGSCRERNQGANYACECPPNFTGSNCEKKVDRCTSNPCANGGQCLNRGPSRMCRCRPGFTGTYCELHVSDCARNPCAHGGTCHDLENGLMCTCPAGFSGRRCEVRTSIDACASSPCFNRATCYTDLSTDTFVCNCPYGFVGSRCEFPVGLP

B1: 抗人DLL4人源化抗体H3L2 (antibody, human IgG1, lambda, V domains shown)
VH: QVQLVQSGAEVKKPGSSVKVSCKASGYTFSGYWMQWIKQAPGQGLEWIGAIYPGDGDTRYTQKFKGRATLTADKSTSTAYMELSSLRSEDTAVYYCAGGNFFFDYWGQGTLVTVSS
VL: EIVITQSPDFQSVTPKEKVTITCSVSSSISSSYLHWYQQKPDQSPKPWIYGTSNLASGVPSRFSGSGSGTDYTLTINSLEAEDAATYYCQQWSSSPLTFGQGTKLEIKV
notes: also called 抗DLL4人源化抗体
B1 came in with a dissociation constant (Kd) of 2.26 pM. That is a picomolar value.

(Values after patent CN105384819A (UNIV CHINA PHARMA, dated 2016).)
